From paper doi:10.1101/307710, “Assignment of the resting state of the secondary active transporter BetP by integrating spectroscopic measurements and molecular simulations” (bioRxiv, 2018)

Biological target: the molecule itself
Assay: PELDOR (DEER) spectroscopy; spin-labelled BetP in E. coli polar lipid proteoliposomes (lipid to protein 20:1), 200 mM Tris-HCl pH 7.5 in deuterated water, with 500 mM NaCl or with 300 mM NaCl and 5 mM betaine; Q-band, four-pulse sequence; distance distributions by Tikhonov regularisation

B1: BetP G450R5/S516R5 in the background of the C252T cys-less variant (spin-labelled glycine betaine symporter BetP of Corynebacterium glutamicum) (natural protein, UniProt P54582 1-595, looked up)
chain: MTTSDPNPKPIVEDAQPEQITATEELAGLLENPTNLEGKLADAEEEIILEGEDTQASLNWSVIVPALVIVLATVVWGIGFKDSFTNFASSALSAVVDNLGWAFILFGTVFVFFIVVIAASKFGTIRLGRIDEAPEFRTVSWISMMFAAGMGIGLMFYGTTEPLTFYRNGVPGHDEHNVGVAMSTTMFHWTLHPWAIYAIVGLAIAYSTFRVGRKQLLSSAFVPLIGEKGAEGWLGKLIDILAIIATVFGTATSLGLGALQIGAGLSAANIIEDPSDWTIVGIVSVLTLAFIFSAISGVGKGIQYLSNANMVLAALLAIFVFVVGPTVSILNLLPGSIGNYLSNFFQMAGRTAMSADGTAGEWLGSWTIFYWAWWISWSPFVGMFLARISRGRSIREFILGVLLVPAGVSTVWFSIFGGTAIVFEQNGESIWGDGAAEEQLFGLLHALPGCQIMGIIAMILLGTFFITSADSASTVMGTMSQHGQLEANKWVTAAWGVATAAIGLTLLLSGGDNALCNLQNVTIVAATPFLFVVIGLMFALVKDLSNDVIYLEYREQQRFNARLARERRVHNEHRKRELAAKRRRERKASGAGKRR
modifications: R5 spin label ((1-oxyl-2,2,5,5-tetramethylpyrrolidin-3-yl)methyl methanethiosulfonate) on the cysteines introduced at positions 450 and 516
notes: Glycine betaine symporter BetP (betaine permease), Corynebacterium glutamicum; expressed from pASK-IBA5betP; cys-less C252T background with cysteines introduced at G450 and S516; also called periplasmic spin label pair; betaine permease
binding result: binds
